# Assay: soluble on expression in E. coli; label from the status in PepcDB or PDB records
row,Sequence,soluble on expression in E. coli
1,TLANNRVRLLVNGEASFEAMFKAISAARQVILVQFFIVRDDALGQRLQQLLLERAANGVEVFFLYDAIGSHALPHRYVERLRQGGVQMHGFSTGSGMLNRFQVNFRNHRKVVVVDGECGFVGGHNVGVEYLGEKPPLAPWRDTHMELRGPAVACLQESFAEDWYWATHSLPPLILPPQYDSEGALCQVVASGPA,not soluble
2,TMEIPINRTYSCFLEGPEAPKTPACQAAKQAGGTQAMYDWNGINQNPSGDNHQAVVPDGTLCGGGKAEFKGFNLAREDWRTTNIVPDANGNYEFIYKATAPHATKYFKFYVTKNGWNPTQALKWSDLELFGTVNGNPQQDAGKRYHMTLKLPQGKTGKHIIFNVWKRSDSEEAFYSCSDVNFGG,not soluble
3,TPPSGSGNWESLFNGLYRLQQRQRRKRKELTNLIRRFRNGAESLPDAVVVFRAEGNIVWCNRLAQHLLGFHWPEDSGQPISNLIRTPDFIKYLNKKDFSEPLEMRSPLNVERMLELRIVPYTEGEHLMVVRD,not soluble
4,TRGLNFSVEFTGGTVMEVQYQQGADVNKMRERLDTLKIGDVQVQALGTNKHIMIRLPNKEGVTSAQLSNQVMDLLKKDSPDVTLRQVEFIGPQVGEE,not soluble
5,TTIVSVRRNGHVVIAGDGQATLGNTVMKGNVKKVRRLYNDKVIAGFAGGTADAFTLFELFERKLEMHQGHLVKAAVELAKDWRTDRMLRKLEALLAVADETASLIITGNGDVVQPENDLIAIGSGGPYAQAAARALLENTELSAREIAEKALDIAGDICIYTNHFHTIEELSYKAEFHHHHHH,soluble
6,TVQCKVTLLDGTEYSCDLEKHAKGQVLFDKVCEHLNLLEKDYFGLLFQESPEQKNWLDPAKEIKRQLRNLPWLFTFNVK,not soluble
7,VAERNSLAKTVYAIFVPLREGESQIAAEITPMRSERFGVDVLPGHPALSQIEDLMSDSWQSALGRQTGPFRRIHWAGQLAHAMERDDRYDVIFFDVGPSLGPFNRTVLLGCDAFVTPTATDLFSFHAFGNLARWFDAWVTQYAEIHEGNMAEWKKYSADVEAKTRPLRLGGFDGEGLRYLGYTTLEYVKRRANGQEQLVGAFERFRGRFAAEAERISNSLSKHSNSTLLGHVPHMHSMPATAQDVHAPIMELSSSDRVRGAQINQRNAYAEKINSVAANVYKALFPNE,not soluble
8,VCLEFQDCGVGLNAAQFKQLLISAVKDLFGEVDAALPLDILTYEEKTLSAILRICSSGLVKLWSSLTLLGSYKGKKCAFRVIQVSPFLLALSGNSRELVLD,not soluble
9,VDEPESMVNLAFVKNDSYEKGPDSVVVHVYVKEICRDTSRVLFREQDFTLIFQTRDGNFLRLHPGCGPHTTFRWQVKLRNLIEPEQCTFCFTASRIDICLRKRQSQRWGGLEAPAARVGGA,soluble
10,VETISFSFSEFEPGNNDLTLQGAAIITQSGVLQLTKINQNGMPAWDSTGRTLYTKPVHIWDMTTGTVASFETRFSFSIEQPYTRPLPADGLVFFMGPTKSKPAQGYGYLGVFNNSKQDNSYQTLAVEFDTFSNPWDPPQVPHIGIDVNSIRSIKTQPFQLDNGQVANVVIKYDASSKILLAVLVYPSSGAIYTIAEIVDVKQVLPEWVDVGLSGATGAQRDAAETHDVYSWSFHASLPETND,soluble
11,VEVLLGGDDGSLAFLPGDFSVASGEEIVFCNNAGFPHNVVFDEDEIPSGVDAAKISMSEEDLLNAPGECYKVTLTEKGTYKFYCSPHQGAGMVGKVTVN,soluble
12,VGKMTPDFLGSLSTTLSWKNLSLHIATDMRFGGLVASYSNLYGTQAGWIKSSLKWRDPEHGGLSWTSQYGDSKGISYGDGVIPDGVFKNGTFATLVDGTKMDVSGMSYKQLVAEGKLEPTHAGTYHVNRAAWGQNTIFDTWVHELNYIALREITLSYRFPKSVASKFGAQGLGLSFSARNLGYLYNSLPNHLNPESVRGNTASEFRIRGYEPYTANYMMTINVDF,not soluble
13,VGLIEKQKVQDSDFIEHKEVGLLISHDGIYFKFEPEQLAKHLVEFKSEQDQLIFGGVVQNSDYFFMVTSLGNIITVPIYKTLSNTKTKMNELLAKKPILMEDEKLVLAGIVNPDKME,soluble
14,VHVEDALTYLDQVKIRFGSDPATYNGFLEIMKEFKSQSIDTPGVIRRVSQLFHEHPDLIVGFNAFLP,soluble

# Source: the DeepSol protein solubility set
